Laboratory results reported in patent US20100260765A1 (AstraZeneca / MedImmune, published 2010).

Experiments:
human KDR [1] = target: T1, human KDR (human, UniProt P35968 20-1356); assay: cell-based or functional assay
human KDR [2] = target: T1, human KDR; assay: cell-based or functional assay; remark: listed apart in the source
human KDR [3] = target: T1, human KDR; assay: cell-based or functional assay; remark: listed apart in the source
[4] = target: T2, mouse KDR (Flk-1)/Fc (Cat. #443-KD/CF, R&D Systems, Inc.) (mouse, UniProt P35918 20-762); assay: ELISA, Flk-1 coat 5 ug/mL, antibody 1 ug/mL
T2 construct: Bought reagent; also called mouse VEGFR2; KDR mouse ortholog; not shown: Fc of the bought fusion protein
Protocol: (§1) The cross-reactivity of purified antibodies was tested against KDR mouse ortholog KDR mouse ortholog (mouse VEGFR2, or Flk-1) and human VEGFR1 (Flt-1). The ability of the antibodies to bind soluble KDR Ig4-7 domain and to the entire KDR extracellular domain (ECD) was also measured.
(§2) Cross-reactivity experiments were carried out and measured using an ELISA based assay as described in Example 6. […] Antibody controls included IgG1 and IgG4 (Sigma-Aldrich, Cat. #15154 and #14639, respectively).

[5] = target: T2, mouse KDR (Flk-1)/Fc (Cat. #443-KD/CF, …); assay: ELISA, Flk-1 coat 5 ug/mL, antibody 0.1 ug/mL
Protocol: as §1, §2

[6] = target: T3, whole KDR-ECD (Cat. # 676490, Calbiochem) (human, UniProt P35968 20-764); assay: ELISA, KDR-ECD coat 5 ug/mL, antibody 1 ug/mL
T3 construct: extracellular domain; Bought soluble protein; also called soluble KDR; VEGF Receptor 2 D1-7
Protocol: as §1, §2

[7] = target: T2, mouse KDR (Flk-1)/Fc (Cat. #443-KD/CF, …); assay: ELISA, Flk-1 coat 5 ug/mL, antibody 0.01 ug/mL
Protocol: as §1, §2

[8] = target: T3, whole KDR-ECD (Cat. # 676490, …); assay: ELISA, KDR-ECD coat 5 ug/mL, antibody 0.1 ug/mL
Protocol: as §1, §2

[9] = target: T3, whole KDR-ECD (Cat. # 676490, …); assay: ELISA, KDR-ECD coat 5 ug/mL, antibody 0.01 ug/mL
Protocol: as §1, §2

soluble KDR Ig4-7 domain [10] = target: T4, soluble KDR Ig4-7 domain (human, UniProt P35968 328-764); assay: ELISA, KDR Ig4-7 coat (1:1 diln.), antibody 1 ug/mL
T4 construct: domain: Ig4-7 domain; also called b-KDRIg4-7-myc-his; Ig4-7 domain of KDR; not shown: myc-his tag of the pSecTag construct
Protocol: as §1, §2

soluble KDR Ig4-7 domain [11] = target: T4, soluble KDR Ig4-7 domain; assay: ELISA, KDR Ig4-7 coat (1:1 diln.), antibody 0.1 ug/mL
Protocol: as §1, §2

soluble KDR Ig4-7 domain [12] = target: T4, soluble KDR Ig4-7 domain; assay: ELISA, KDR Ig4-7 coat (1:1 diln.), antibody 0.01 ug/mL
Protocol: as §1, §2

human KDR [13] = target: T1, human KDR; assay: FACS titration of purified antibody on HUVEC cells (FACS Kd)
Protocol: The binding affinities of the purified antibodies for endogenously-expressed KDR in HUVEC cells was measured. HUVEC cells were seeded at 150,000 cells/well and incubated with titrations of purified antibody for 4 hours at 4° C. The cells were then washed and incubated with goat anti-human IgG-Fc-Cy5+5 μg/mL 7-Amino-Actinomycin (7AAD) for 30 minutes at 4° C. Bound KDR was detected using FACS analysis.

[14] = target: T5, human KDR (VEGFR2) on cells (human, UniProt P35968 20-1356); assay: cell-based or functional assay
[15] = target: T5, human KDR (VEGFR2) on cells; assay: cell-based or functional assay; remark: listed apart in the source
[16] = target: T5, human KDR (VEGFR2) on cells; assay: cell-based or functional assay; remark: listed apart in the source
[17] = target: T5, human KDR (VEGFR2) on cells; assay: FACS on HUVEC, hybridoma supernatant 1:50
Method in brief: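 HUVECs incubated 1 h at 4° C with hybridoma supernatant at 1:50, then Cy5 goat anti-human antibody (5 μg/mL) plus 7AAD (5 μg/mL) for 15 min at 4° C. Cell-surface binding read by FACS; goat anti-KDR antibody as positive control, irrelevant hybridoma supernatants as negative controls.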

[18] = target: T6, mouse KDR (Flk-1)/Fc (Cat. #443-KD/CF, R&D Systems) (mouse, UniProt P35918 20-762); assay: ELISA, plate-coated Flk-1/Fc 500 ng/mL, hybridoma supernatant 1:5
T6 construct: Bought reagent; also called mouse VEGFR2; KDR mouse ortholog; Fc part of the bought chimera not given
Protocol: The cross-reactivity of antibodies in the hybridoma supernatant was tested against KDR mouse ortholog (mouse VEGFR2, or Flk-1) and human VEGFR1 (Flt-1). Cross-reactivity was measured using an ELISA based assay.
After washing and blocking the plates, the antibody-containing supernatants were added (at 1:5 dilution) into the coated wells and incubated for one hour at room temperature. The plates were then incubated with mouse anti-human IgG 2, 3 and 4 and subsequently with goat anti-mouse IgG Fc POD, to detect and measure bound antibodies.

[19] = target: T7, soluble KDR (VEGF Receptor 2 D1-7, Cat. #676490, Calbiochem) (human, UniProt P35968 20-764); assay: ELISA, plate-coated soluble KDR 250 ng/mL, hybridoma supernatant 1:5
T7 construct: extracellular domain; Bought reagent; also called soluble human KDR; immobilized soluble KDR
Protocol: To screen by binding to immobilized soluble KDR, plates were coated with KDR (Calbiochem) at 250 ng/mL overnight at 4° C. After blocking and washing the coated plates, the candidate hybridoma supernatants (at 1:5 dilution) were transferred to the plates and incubated for one hour at room temperature. The plates were then washed and incubated with secondary antibody (at 1:4000 dilution) for one hour at room temperature.

b-KDRIg4-7-myc-his = target: T8, b-KDRIg4-7-myc-his (UniProt P35968 328-764, prefix 'b-' not explained; captured on neutravidin-coated plates (presumably biotinylated, site not stated)); assay: ELISA, b-KDRIg4-7-myc-his 1 ug/mL on neutravidin, hybridoma supernatant 1:5
T8 construct: domain: Ig4-7; The text calls it 'a KDR antibody containing the Ig4-7 domain'; it is read as the KDR fragment; Purified on a nickel column; also called Ig4-7 domain of KDR; soluble KDR Ig4-7; not shown: myc-his tag of the pSecTag vector
Protocol: To screen by binding to the Ig4-7 domain of KDR, plates were first coated with neutravadin (Pierce) at 4 μg/mL and incubated overnight at 4° C. The plates were then blocked and subsequently incubated with b-KDRIg4-7-myc-his at 1 μg/mL for one hour at room temperature. Candidate hybridoma supernatants (at 1:5 dilution) were transferred to the plates and incubated for one hour at room temperature. The plates were then washed and incubated with goat anti-human IgG Fc POD (at 1:4000 dilution) for one hour at room temperature.

T2 sequence (P35918 20-762 limits assumed): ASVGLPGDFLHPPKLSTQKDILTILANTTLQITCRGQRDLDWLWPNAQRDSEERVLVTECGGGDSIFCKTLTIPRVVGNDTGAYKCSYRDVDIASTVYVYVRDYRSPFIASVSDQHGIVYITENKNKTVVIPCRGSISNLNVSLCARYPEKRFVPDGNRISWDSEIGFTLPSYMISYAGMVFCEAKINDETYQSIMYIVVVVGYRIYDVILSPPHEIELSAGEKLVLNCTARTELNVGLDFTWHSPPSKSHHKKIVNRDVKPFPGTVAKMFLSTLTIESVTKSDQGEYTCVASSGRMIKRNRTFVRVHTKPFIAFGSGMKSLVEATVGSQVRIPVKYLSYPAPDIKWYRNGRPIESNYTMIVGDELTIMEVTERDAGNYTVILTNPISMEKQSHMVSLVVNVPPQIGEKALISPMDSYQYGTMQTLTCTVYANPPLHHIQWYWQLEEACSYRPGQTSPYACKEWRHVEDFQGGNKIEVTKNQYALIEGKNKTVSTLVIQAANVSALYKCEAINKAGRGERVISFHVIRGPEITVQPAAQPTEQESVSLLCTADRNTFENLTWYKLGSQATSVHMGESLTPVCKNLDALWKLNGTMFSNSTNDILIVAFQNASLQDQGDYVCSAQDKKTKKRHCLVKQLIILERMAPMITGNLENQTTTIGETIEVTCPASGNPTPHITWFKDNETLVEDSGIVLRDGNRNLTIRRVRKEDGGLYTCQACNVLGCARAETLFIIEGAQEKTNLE
T5 sequence (P35968 20-1356): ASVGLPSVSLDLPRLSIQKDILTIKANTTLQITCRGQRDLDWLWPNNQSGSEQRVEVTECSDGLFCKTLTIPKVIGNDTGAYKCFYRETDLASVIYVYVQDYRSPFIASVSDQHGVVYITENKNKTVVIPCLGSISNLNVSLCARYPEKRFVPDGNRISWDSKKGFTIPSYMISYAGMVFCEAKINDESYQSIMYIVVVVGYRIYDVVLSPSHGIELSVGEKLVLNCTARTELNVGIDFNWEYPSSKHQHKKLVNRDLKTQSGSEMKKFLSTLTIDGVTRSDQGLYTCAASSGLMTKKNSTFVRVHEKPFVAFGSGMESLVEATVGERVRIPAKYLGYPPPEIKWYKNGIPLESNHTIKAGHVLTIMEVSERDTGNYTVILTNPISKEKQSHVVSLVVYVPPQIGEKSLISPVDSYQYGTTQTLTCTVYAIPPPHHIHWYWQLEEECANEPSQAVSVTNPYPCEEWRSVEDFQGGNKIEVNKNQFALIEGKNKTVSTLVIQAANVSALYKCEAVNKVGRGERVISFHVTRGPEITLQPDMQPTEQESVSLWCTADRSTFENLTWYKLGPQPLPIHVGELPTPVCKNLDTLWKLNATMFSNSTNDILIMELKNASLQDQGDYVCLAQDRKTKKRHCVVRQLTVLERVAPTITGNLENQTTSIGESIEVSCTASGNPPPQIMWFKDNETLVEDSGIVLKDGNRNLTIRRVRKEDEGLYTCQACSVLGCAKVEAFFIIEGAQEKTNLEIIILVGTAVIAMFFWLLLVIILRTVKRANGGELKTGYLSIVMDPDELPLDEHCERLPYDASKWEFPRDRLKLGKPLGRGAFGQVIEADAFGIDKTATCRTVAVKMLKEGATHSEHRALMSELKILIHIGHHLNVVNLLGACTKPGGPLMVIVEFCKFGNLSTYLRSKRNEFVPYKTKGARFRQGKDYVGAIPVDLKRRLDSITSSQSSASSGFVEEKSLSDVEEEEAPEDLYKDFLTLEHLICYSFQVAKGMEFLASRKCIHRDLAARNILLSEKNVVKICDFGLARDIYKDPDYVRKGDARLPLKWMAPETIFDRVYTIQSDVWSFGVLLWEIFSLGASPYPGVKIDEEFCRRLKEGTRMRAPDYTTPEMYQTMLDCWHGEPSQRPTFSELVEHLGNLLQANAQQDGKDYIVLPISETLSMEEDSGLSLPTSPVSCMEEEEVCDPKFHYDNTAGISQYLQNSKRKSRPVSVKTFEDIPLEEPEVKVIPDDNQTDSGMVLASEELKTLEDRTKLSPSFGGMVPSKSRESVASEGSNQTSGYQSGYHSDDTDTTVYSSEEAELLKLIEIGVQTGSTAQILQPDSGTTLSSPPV
T1 sequence (P35968 20-1356): as above
T4 sequence (P35968 328-764): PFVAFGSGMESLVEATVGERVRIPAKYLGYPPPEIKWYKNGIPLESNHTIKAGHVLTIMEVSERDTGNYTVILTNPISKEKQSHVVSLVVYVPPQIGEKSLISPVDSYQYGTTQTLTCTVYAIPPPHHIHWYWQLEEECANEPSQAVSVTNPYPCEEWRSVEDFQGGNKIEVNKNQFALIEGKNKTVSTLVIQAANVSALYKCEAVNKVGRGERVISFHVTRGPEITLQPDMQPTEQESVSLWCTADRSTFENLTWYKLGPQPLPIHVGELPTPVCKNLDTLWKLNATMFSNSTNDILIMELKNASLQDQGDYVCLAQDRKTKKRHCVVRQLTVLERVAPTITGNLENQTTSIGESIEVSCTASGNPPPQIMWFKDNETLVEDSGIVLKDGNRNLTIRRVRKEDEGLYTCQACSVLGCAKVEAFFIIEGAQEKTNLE
T3 sequence (P35968 20-764): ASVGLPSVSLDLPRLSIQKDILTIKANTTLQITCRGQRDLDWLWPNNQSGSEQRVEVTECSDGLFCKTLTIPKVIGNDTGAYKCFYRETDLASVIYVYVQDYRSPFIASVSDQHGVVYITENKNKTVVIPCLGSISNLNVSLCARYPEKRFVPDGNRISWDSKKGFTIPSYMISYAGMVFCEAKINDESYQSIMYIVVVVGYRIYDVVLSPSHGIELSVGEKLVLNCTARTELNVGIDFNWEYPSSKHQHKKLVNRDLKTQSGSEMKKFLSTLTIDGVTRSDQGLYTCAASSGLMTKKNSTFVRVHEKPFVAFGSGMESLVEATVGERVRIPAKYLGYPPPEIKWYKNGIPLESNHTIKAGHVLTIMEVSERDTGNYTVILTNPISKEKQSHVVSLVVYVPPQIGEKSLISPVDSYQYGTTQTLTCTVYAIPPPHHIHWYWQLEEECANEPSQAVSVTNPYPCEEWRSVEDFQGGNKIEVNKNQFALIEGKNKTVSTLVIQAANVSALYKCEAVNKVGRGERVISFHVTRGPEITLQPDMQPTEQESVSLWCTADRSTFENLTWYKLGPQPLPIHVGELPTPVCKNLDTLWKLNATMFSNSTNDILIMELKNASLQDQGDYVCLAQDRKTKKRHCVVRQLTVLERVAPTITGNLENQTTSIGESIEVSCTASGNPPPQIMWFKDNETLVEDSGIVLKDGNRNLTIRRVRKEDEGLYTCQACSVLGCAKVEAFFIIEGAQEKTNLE
T6 sequence (P35918 20-762): as the sequence (P35918 20-762 limits assumed) above
T8 sequence (P35968 328-764): as the sequence (P35968 328-764) above
T7 sequence (P35968 20-764): as the sequence (P35968 20-764) above

B1: 29H3 (antibody, V domains shown)
VH: QVQLVQSGAEVKKPGASVKVSCKASGYTFTSYDINWVRQATGQGLEWMGWMNPNSGKTGYAQKFQGRVTMTRNTSINTAYMELSSLRSEDTAVYYCARGGYSNLGWFDPWGQGTLVTVSS
VL: DIQMTQSPSSVSASVGDRVTITCRASQGISSWLVWYHQKPGKAPKLLIYGASSLQSGVPSRFSGSGSGTDFTLTISSLQPEDFATYYCQQANNFPFTFGPGTKVDIK
notes: Fully human monoclonal antibody from a XenoMouse hybridoma (IgG2 or IgG4 strain), purified
Human KDR [1]
  KDR tyrosine phosphorylation in HUVEC, EC50 (nM), Average: 0.4 nM
  KDR tyrosine phosphorylation in HUVEC, EC50 (nM), N = 1: 0.5 nM
  KDR tyrosine phosphorylation in HUVEC, EC50 (nM), N = 2: 0.4 nM
  KDR tyrosine phosphorylation in HUVEC, Maximum Inhibition at 100 nM (% Inhibition), Average: 32%
  KDR tyrosine phosphorylation in HUVEC, Maximum Inhibition at 100 nM (% Inhibition), N = 1: 33%
  KDR tyrosine phosphorylation in HUVEC, Maximum Inhibition at 100 nM (% Inhibition), N = 2: 30%
Human KDR [2]
  HUVEC survival, Maximum Inhibition at 50 nM (% Inhibition), Average: 11%
  HUVEC survival, Maximum Inhibition at 50 nM (% Inhibition), N = 1: 4%
  HUVEC survival, Maximum Inhibition at 50 nM (% Inhibition), N = 2: 18%
Human KDR [3]
  6-keto Prostaglandin F1α release, Maximum Inhibition (% Inhibition), Average: 5%
  6-keto Prostaglandin F1α release, Maximum Inhibition (% Inhibition), N = 1 (200 nM): 2%
  6-keto Prostaglandin F1α release, Maximum Inhibition (% Inhibition), N = 2 (333 nM): 8%
[4]
  ELISA reading: 3.04
[5]
  ELISA reading: 2.35
[6]
  ELISA reading: 2.62
[7]
  ELISA reading: 1.14
[8]
  ELISA reading: 0.306
[9]
  ELISA reading: 0.099
Soluble KDR Ig4-7 domain [10]
  ELISA reading: 3.02
Soluble KDR Ig4-7 domain [11]
  ELISA reading: 2.36
Soluble KDR Ig4-7 domain [12]
  ELISA reading: 1.14
Human KDR [13]
  Kd: 0.5 nM

B2: anti-KDR monoclonal antibody 29D4 (antibody, V domains shown)
VH: QLQLQESGPGLVKPSETLSLTCTVSGGSISSRSNYWGWIRQPPGKGLEWIGTIYYSGHTYYNPSLKSRVSISVDTSKNQFSLKLSSVTATDTALYYCARQQLVLYYFEYWGQGTLVTVSS
VL: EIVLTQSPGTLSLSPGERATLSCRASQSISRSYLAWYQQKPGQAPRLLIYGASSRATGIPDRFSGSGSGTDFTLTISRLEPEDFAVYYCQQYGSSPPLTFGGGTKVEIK
notes: Fully human mAb from XenoMouse (IgG2 or IgG4 strain); hybridoma supernatant
[14]
  % Inhibition of VEGF165-mediated pTyr Activity, Average: 72%
  % Inhibition of VEGF165-mediated pTyr Activity, n = 1: 85%
  % Inhibition of VEGF165-mediated pTyr Activity, n = 2: 67%
  % Inhibition of VEGF165-mediated pTyr Activity, n = 3: 63%
[15]
  % Inhibition of VEGF-E-mediated pTyr Activity: 67%
[16]
  HUVEC survival (n = 1) 1:10 dilution of supernatant (RLU): 12900 RLU
  HUVEC survival (n = 2) 1:20 dilution of supernatant (RLU): 5380 RLU
[17]
  FACS Geometric Mean: 26
[18]
  OD (450 nm): 0.1 OD450
[19]
  KDR OD(450 nm): 1 OD450
b-KDRIg4-7-myc-his
  b-KDRIg4-7 OD(450 nm): 2.61 OD450
